Experimental data as given in paper PMC2928777, “Neuropeptide delivery to the brain: a von Willebrand factor signal peptide to direct neuropeptide secretion” (BMC Neuroscience, 2010).

Target: T1, human MC4R (Homo sapiens, UniProt P32245)
T1 construct: expressed in transfected cells; host or cells: HEK 293T cells, transient transfection with polyethylenimine, co-transfected with CRE-LacZ
Assay: LacZ reporter gene assay (MC4R_CRE-LacZ transfected 293T cells)
Assay type: cell-based
Details: for EC50: 10% of the volume added was supernatant of 293T cells transfected with the named construct, antagonism of MC4R (rightward shift), average of 4 trials, read-out: EC50 of NDP-MSH dose response curve in presence of supernatant
Description: Activation of MC4R in vitro results in an increase in cyclic adenosine monophosphate (cAMP)[27]. In our assay upregulation of cAMP increased LacZ expression through a cAMP responsive element.
Activation of the MC4R was determined using LacZ as a reporter gene. DNA was transfected into cells with polyethylenimine. Fifty nanograms of human MC4R and 10 μg of cAMP-responsive element (CRE)-LacZ were transfected into 293T cells on 10cm dishes. Another five 10cm dishes with 293T cells were transfected with 10 μg of respectively pAAV-GFP, pAAV-flAgRP, pAAV-VWF-AgRP83-132 , pAAV-VWF-αMSH1 and pAAV-VWF-αMSH4. One day after transfection the MC4R_CRE-LacZ cells were transferred to poly-L-lysine coated 96-wells plates. Three days after transfection supernatant of 10cm dishes was removed and used for LacZ reporter assay. […] In addition only forskolin was added to other wells as a positive control for CRE-LacZ transfection and the subsequent colometric reaction. The medium of another plate with MC4R_CRE-LacZ transfected cells was replaced with assay buffer containing serial dilutions of conditioned medium from cells transfected with αMSH1, αMSH4 or GFP. […] After 5-6 hour incubation at 37°C the assay medium was removed and replaced by 40 μl lysisbuffer (phosphate buffered saline (PBS) containing 0.1% Triton-X-100). The plates were stored at -20°C. After thawing of the plates, 80 μl of substrate (0.1 M phosphate buffer, pH7.4, containing 1.6 g/l o-nitrophenyl β-D-galactopyranoside (ONPG, Invitrogen, the Netherlands), 67.5 mM β-mercaptoethanol (Merck, Germany) and 1.5 mM magnesium chloride) was added to each well. Absorbance at 405 nm was measured in a Victor^2 microplate reader (PerkinElmer, Brussels, Belgium).
Data were analyzed with GraphPad Prism (GraphPad Software Inc., California). Competition curves were fitted from duplicate data points using sigmoidal dose response curve with variable slope.

T1 sequence (P32245 whole entry): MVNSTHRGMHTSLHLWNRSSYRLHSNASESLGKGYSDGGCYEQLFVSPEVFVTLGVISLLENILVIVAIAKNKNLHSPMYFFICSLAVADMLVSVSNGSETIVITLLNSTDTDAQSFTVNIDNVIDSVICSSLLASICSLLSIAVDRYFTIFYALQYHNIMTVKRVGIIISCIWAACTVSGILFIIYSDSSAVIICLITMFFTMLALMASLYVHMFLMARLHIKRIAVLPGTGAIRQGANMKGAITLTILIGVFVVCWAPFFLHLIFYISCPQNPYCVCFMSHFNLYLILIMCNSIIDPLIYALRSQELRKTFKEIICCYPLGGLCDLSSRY

Molecule “VWF-AgRP83-132: minigene product: VWF signal peptide, HA tag, furin site and AgRP83-132; tested as supernatant of transfected 293T cells (SPRRCVRLHESCLGQQVPCCDPCATCYCRFFNAFCYCRKLGTATNLCSRT; not fully specified; Secreted furin-released minigene product; VWF signal peptide, HA tag and RKRR furin site left out; The name 83-132 follows human numbering; it equals mouse precursor 82-131, since the printed primer e)” has an EC50 of 0.5 nM.

B1: flAgRP: supernatant of 293T cells transfected with full length mouse Agouti-related protein construct with normal AgRP signal peptide (protein, UniProt P56473 1-131, looked up)
chain: MLTAMLLSCVLLLALPPTLGVQMGVAPLKGIRRPDQALFPEFPGLSLNGLKKTTADRAEEVLLQKAEALAEVLDPQNRESRSPRRCVRLHESCLGQQVPCCDPCATCYCRFFNAFCYCRKLGTATNLCSRT
modifications: full-length
notes: supernatant of 293T cells transfected with full length mouse Agouti-related protein construct with normal AgRP signal peptide
With B1 the EC50 was 1.4 nM and the “Shift of NDP-MSH dose response curve in presence of supernatant” value (50% of the volume added was supernatant of transfected 293T cells) was “shifted even further to the right”.
